The experiment addresses T1, Med15 (residues 1-651 Δ239-271, Δ373-483), mediator component (yeast, UniProt P19659 1-651, Δ239–271 | Δ373–483).
T1 sequence (looked up): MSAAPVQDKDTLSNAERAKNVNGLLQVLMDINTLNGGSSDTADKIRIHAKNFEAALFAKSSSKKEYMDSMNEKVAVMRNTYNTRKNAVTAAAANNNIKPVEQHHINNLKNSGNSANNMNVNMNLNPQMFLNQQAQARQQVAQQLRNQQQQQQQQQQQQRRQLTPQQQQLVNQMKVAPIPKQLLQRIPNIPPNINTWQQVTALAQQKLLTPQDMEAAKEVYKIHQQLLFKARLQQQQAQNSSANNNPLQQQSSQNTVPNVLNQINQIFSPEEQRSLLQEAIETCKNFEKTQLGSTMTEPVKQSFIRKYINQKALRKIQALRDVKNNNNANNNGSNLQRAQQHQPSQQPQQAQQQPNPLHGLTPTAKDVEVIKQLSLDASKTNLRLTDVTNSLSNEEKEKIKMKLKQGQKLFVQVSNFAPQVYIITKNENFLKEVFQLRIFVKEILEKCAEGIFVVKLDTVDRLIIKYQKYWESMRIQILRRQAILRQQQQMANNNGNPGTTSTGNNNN
Nature of the experiment: BLI. (In BLI a coated tip is dipped into the sample, and binding shifts an interference pattern.)

B1: Met4 (residues 76 to 160), containing both the UIM and the UIML domains (tandem UBD) (domain or fragment, yeast, UniProt P32389 76-160, looked up)
chain: GNTNLYDHAVTPEILLEQLAYVDNFIPSLDNEFSNVDWNVNTTHNNANNNGADTFSSINANPFDLDEQLAIELSAFADDSFIFPD
modifications: biotin on the Avi tag (BirA)
The term Kd denotes the free concentration of one partner at which half of the binding sites on the other are occupied at equilibrium, for simple one-to-one binding. The low end stands for a tighter complex, the high end for a looser complex. As for B1, the Kd was 100 nM.

These data come from paper PMC7751889 (Molecular cell, 2019).
